# Experimental data published in PMC5948571, “Detection of Metallothionein in Javanese Medaka (Oryzias javanicus), Using a scFv-Immobilized Protein Chip” (Sensors (Basel, Switzerland), 2018).
# B1: Cys3-tagged anti-OjaMT single-chain fragment of variable region (scFv-Cys3) (scFv, V domains shown)
# VH: EVQLQQSGAELVKPGASVKLSCKASGYTFTSYSMHWVKQRPGQGLEWIGEINPSNGRTNYNEKFKSKATLTVDKSSSTAYMQVSSLTSEDSAVYYCARRSSYWYFDVWGAGTTVTVSS
# VL: DVLMTQTPASQSASLGESVTITCLASQTIGTWLAWYQQKPGKSPQLLIYAATSLADGVPSRFSGSGSGTKFSFKISSLQAEDFVSYYCQQLCNPPYTFGGRHQAGNQ
# notes: VH of the anti-OjaMT hybridoma, 119 amino acids; (GGGGS)3 GS-linker, 15 amino acids; VL of the anti-OjaMT hybridoma, 107 amino acids; VH-linker-VL cloned NdeI/HindIII in pET-28a(+) (pJDH033); a GS-linker-Cys3 fragment was put into the HindIII/XhoI sites (pJDH043); also called anti-OjaMT scFv; recombinant scFv; not shown: GS-linker-Cys3, C-terminal, kept
# Biological target: T1, BSA (Bos taurus, UniProt P02769)
# T1 construct: BSA (serum albumin), used as negative control protein; also called control protein
# Assay: SPR; scFv-Cys3 (50 µg/mL) immobilised directly on a gold chip by thiol-gold, blocked with PEG-thiol; OjaMT (5-30 µg/mL) or BSA (30 µg/mL) flowed at 10 µL/min for 10 min, PBS wash; PBS, room temperature; portable MiCo SPR nano
# Settings: both partners purified
# T1 sequence (P02769 25-607): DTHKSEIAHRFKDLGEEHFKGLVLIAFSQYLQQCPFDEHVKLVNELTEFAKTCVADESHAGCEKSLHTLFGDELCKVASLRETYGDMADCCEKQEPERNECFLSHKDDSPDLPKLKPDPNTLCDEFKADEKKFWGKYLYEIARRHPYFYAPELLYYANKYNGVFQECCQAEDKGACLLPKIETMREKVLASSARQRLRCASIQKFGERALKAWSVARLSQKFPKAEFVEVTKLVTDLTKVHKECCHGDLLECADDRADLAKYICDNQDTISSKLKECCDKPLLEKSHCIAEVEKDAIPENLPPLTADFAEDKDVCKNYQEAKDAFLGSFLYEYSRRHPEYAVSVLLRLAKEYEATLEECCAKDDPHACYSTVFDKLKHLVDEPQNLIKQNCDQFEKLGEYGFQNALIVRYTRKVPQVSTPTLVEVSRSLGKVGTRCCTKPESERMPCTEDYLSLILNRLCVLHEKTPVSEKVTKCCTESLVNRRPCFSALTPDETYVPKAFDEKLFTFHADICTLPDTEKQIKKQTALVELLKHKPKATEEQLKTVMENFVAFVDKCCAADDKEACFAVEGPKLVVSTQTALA
binder,measurement,value
B1,binding result,no binding (tested: 30 μg/mL)
